* marks the point of attachment. Palmitoyl = CCCCCCCCCCCCCCCC(=O)*
B1: Compound 83 (peptide)
peptide: Palmitoyl-TNAGRSDTRQQYRKLLF-NH2
SMILES: CCCCCCCCCCCCCCCC(=O)N[C@H](C(=O)N[C@@H](CC(N)=O)C(=O)N[C@@H](C)C(=O)NCC(=O)N[C@@H](CCCNC(=N)N)C(=O)N[C@@H](CO)C(=O)N[C@@H](CC(=O)O)C(=O)N[C@H](C(=O)N[C@@H](CCCNC(=N)N)C(=O)N[C@@H](CCC(N)=O)C(=O)N[C@@H](CCC(N)=O)C(=O)N[C@@H](Cc1ccc(O)cc1)C(=O)N[C@@H](CCCNC(=N)N)C(=O)N[C@@H](CCCCN)C(=O)N[C@@H](CC(C)C)C(=O)N[C@@H](CC(C)C)C(=O)N[C@@H](Cc1ccccc1)C(N)=O)[C@@H](C)O)[C@@H](C)O
B2: Compound 34 (peptide)
peptide: Palmitoyl-LYLHSLIFMAFFSEKKYLWGFT-NH2
SMILES: CCCCCCCCCCCCCCCC(=O)N[C@@H](CC(C)C)C(=O)N[C@@H](Cc1ccc(O)cc1)C(=O)N[C@@H](CC(C)C)C(=O)N[C@@H](Cc1c[nH]cn1)C(=O)N[C@@H](CO)C(=O)N[C@@H](CC(C)C)C(=O)N[C@H](C(=O)N[C@@H](Cc1ccccc1)C(=O)N[C@@H](CCSC)C(=O)N[C@@H](C)C(=O)N[C@@H](Cc1ccccc1)C(=O)N[C@@H](Cc1ccccc1)C(=O)N[C@@H](CO)C(=O)N[C@@H](CCC(=O)O)C(=O)N[C@@H](CCCCN)C(=O)N[C@@H](CCCCN)C(=O)N[C@@H](Cc1ccc(O)cc1)C(=O)N[C@@H](CC(C)C)C(=O)N[C@@H](Cc1c[nH]c2ccccc12)C(=O)NCC(=O)N[C@@H](Cc1ccccc1)C(=O)N[C@H](C(N)=O)[C@@H](C)O)[C@@H](C)CC
B3: Compound 85 (peptide)
peptide: Palmitoyl-TNAGRSDTRQQYRKLLFS-NH2
SMILES: CCCCCCCCCCCCCCCC(=O)N[C@H](C(=O)N[C@@H](CC(N)=O)C(=O)N[C@@H](C)C(=O)NCC(=O)N[C@@H](CCCNC(=N)N)C(=O)N[C@@H](CO)C(=O)N[C@@H](CC(=O)O)C(=O)N[C@H](C(=O)N[C@@H](CCCNC(=N)N)C(=O)N[C@@H](CCC(N)=O)C(=O)N[C@@H](CCC(N)=O)C(=O)N[C@@H](Cc1ccc(O)cc1)C(=O)N[C@@H](CCCNC(=N)N)C(=O)N[C@@H](CCCCN)C(=O)N[C@@H](CC(C)C)C(=O)N[C@@H](CC(C)C)C(=O)N[C@@H](Cc1ccccc1)C(=O)N[C@@H](CO)C(N)=O)[C@@H](C)O)[C@@H](C)O
B4: Compound 89 (peptide)
peptide: Palmitoyl-TNAGRSDTRQQYRKAL-NH2
SMILES: CCCCCCCCCCCCCCCC(=O)N[C@H](C(=O)N[C@@H](CC(N)=O)C(=O)N[C@@H](C)C(=O)NCC(=O)N[C@@H](CCCNC(=N)N)C(=O)N[C@@H](CO)C(=O)N[C@@H](CC(=O)O)C(=O)N[C@H](C(=O)N[C@@H](CCCNC(=N)N)C(=O)N[C@@H](CCC(N)=O)C(=O)N[C@@H](CCC(N)=O)C(=O)N[C@@H](Cc1ccc(O)cc1)C(=O)N[C@@H](CCCNC(=N)N)C(=O)N[C@@H](CCCCN)C(=O)N[C@@H](C)C(=O)N[C@@H](CC(C)C)C(N)=O)[C@@H](C)O)[C@@H](C)O
B5: Compound 88 (peptide)
peptide: Palmitoyl-TNAGRSDTRQQYRKLA-NH2
SMILES: CCCCCCCCCCCCCCCC(=O)N[C@H](C(=O)N[C@@H](CC(N)=O)C(=O)N[C@@H](C)C(=O)NCC(=O)N[C@@H](CCCNC(=N)N)C(=O)N[C@@H](CO)C(=O)N[C@@H](CC(=O)O)C(=O)N[C@H](C(=O)N[C@@H](CCCNC(=N)N)C(=O)N[C@@H](CCC(N)=O)C(=O)N[C@@H](CCC(N)=O)C(=O)N[C@@H](Cc1ccc(O)cc1)C(=O)N[C@@H](CCCNC(=N)N)C(=O)N[C@@H](CCCCN)C(=O)N[C@@H](CC(C)C)C(=O)N[C@@H](C)C(N)=O)[C@@H](C)O)[C@@H](C)O
B6: Compound 86 (peptide)
peptide: Palmitoyl-TNAGRSDTRQQYRKLLFA-NH2
SMILES: CCCCCCCCCCCCCCCC(=O)N[C@H](C(=O)N[C@@H](CC(N)=O)C(=O)N[C@@H](C)C(=O)NCC(=O)N[C@@H](CCCNC(=N)N)C(=O)N[C@@H](CO)C(=O)N[C@@H](CC(=O)O)C(=O)N[C@H](C(=O)N[C@@H](CCCNC(=N)N)C(=O)N[C@@H](CCC(N)=O)C(=O)N[C@@H](CCC(N)=O)C(=O)N[C@@H](Cc1ccc(O)cc1)C(=O)N[C@@H](CCCNC(=N)N)C(=O)N[C@@H](CCCCN)C(=O)N[C@@H](CC(C)C)C(=O)N[C@@H](CC(C)C)C(=O)N[C@@H](Cc1ccccc1)C(=O)N[C@@H](C)C(N)=O)[C@@H](C)O)[C@@H](C)O
B7: Compound 87 (peptide)
peptide: Palmitoyl-TNAGRSDTRQQYRKLLA-NH2
SMILES: CCCCCCCCCCCCCCCC(=O)N[C@H](C(=O)N[C@@H](CC(N)=O)C(=O)N[C@@H](C)C(=O)NCC(=O)N[C@@H](CCCNC(=N)N)C(=O)N[C@@H](CO)C(=O)N[C@@H](CC(=O)O)C(=O)N[C@H](C(=O)N[C@@H](CCCNC(=N)N)C(=O)N[C@@H](CCC(N)=O)C(=O)N[C@@H](CCC(N)=O)C(=O)N[C@@H](Cc1ccc(O)cc1)C(=O)N[C@@H](CCCNC(=N)N)C(=O)N[C@@H](CCCCN)C(=O)N[C@@H](CC(C)C)C(=O)N[C@@H](CC(C)C)C(=O)N[C@@H](C)C(N)=O)[C@@H](C)O)[C@@H](C)O
B8: Compound 90 (peptide)
peptide: Palmitoyl-TNAGRSDTRQQYRALL-NH2
SMILES: CCCCCCCCCCCCCCCC(=O)N[C@H](C(=O)N[C@@H](CC(N)=O)C(=O)N[C@@H](C)C(=O)NCC(=O)N[C@@H](CCCNC(=N)N)C(=O)N[C@@H](CO)C(=O)N[C@@H](CC(=O)O)C(=O)N[C@H](C(=O)N[C@@H](CCCNC(=N)N)C(=O)N[C@@H](CCC(N)=O)C(=O)N[C@@H](CCC(N)=O)C(=O)N[C@@H](Cc1ccc(O)cc1)C(=O)N[C@@H](CCCNC(=N)N)C(=O)N[C@@H](C)C(=O)N[C@@H](CC(C)C)C(=O)N[C@@H](CC(C)C)C(N)=O)[C@@H](C)O)[C@@H](C)O
B9: Compound 84 (peptide)
peptide: Palmitoyl-TNAGRSDTRQQYRKLLK-NH2
SMILES: CCCCCCCCCCCCCCCC(=O)N[C@H](C(=O)N[C@@H](CC(N)=O)C(=O)N[C@@H](C)C(=O)NCC(=O)N[C@@H](CCCNC(=N)N)C(=O)N[C@@H](CO)C(=O)N[C@@H](CC(=O)O)C(=O)N[C@H](C(=O)N[C@@H](CCCNC(=N)N)C(=O)N[C@@H](CCC(N)=O)C(=O)N[C@@H](CCC(N)=O)C(=O)N[C@@H](Cc1ccc(O)cc1)C(=O)N[C@@H](CCCNC(=N)N)C(=O)N[C@@H](CCCCN)C(=O)N[C@@H](CC(C)C)C(=O)N[C@@H](CC(C)C)C(=O)N[C@@H](CCCCN)C(N)=O)[C@@H](C)O)[C@@H](C)O

The binders below were run against PTHR1 receptor.
PTHR1 receptor, sequence (P25961 whole entry): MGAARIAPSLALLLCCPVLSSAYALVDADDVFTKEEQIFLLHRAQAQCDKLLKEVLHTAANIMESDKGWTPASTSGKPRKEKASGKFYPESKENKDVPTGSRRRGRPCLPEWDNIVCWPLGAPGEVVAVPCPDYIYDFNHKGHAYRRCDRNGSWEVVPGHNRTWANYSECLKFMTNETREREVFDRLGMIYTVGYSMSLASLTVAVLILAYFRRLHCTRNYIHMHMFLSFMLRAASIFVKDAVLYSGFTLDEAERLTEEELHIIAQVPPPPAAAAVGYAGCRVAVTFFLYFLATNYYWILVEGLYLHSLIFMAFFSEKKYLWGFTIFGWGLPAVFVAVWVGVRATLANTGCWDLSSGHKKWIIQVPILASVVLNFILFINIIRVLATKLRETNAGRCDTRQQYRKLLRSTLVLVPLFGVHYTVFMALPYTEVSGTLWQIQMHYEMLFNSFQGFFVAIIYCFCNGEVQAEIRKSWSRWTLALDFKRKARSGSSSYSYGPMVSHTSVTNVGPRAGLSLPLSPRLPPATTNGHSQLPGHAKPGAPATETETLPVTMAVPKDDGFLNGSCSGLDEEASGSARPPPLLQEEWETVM

| Binder | Fold Shift of EC50 | Inhibition of Maximal Response |
| --- | --- | --- |
| B1 | 7 fold | -5.8% |
| B2 | 1.2 fold | 4.2% |
| B3 | 6.9 fold | 19.5% |
| B4 | 2.3 fold | -20.4% |
| B5 | 2.8 fold | -25% |
| B6 | 3.6 fold | 5.2% |
| B7 | 4.1 fold | 8% |
| B8 | 2 fold | 21% |
| B9 | 9.1 fold | -25.2% |

Reference: patent US20110294738A1, “PTHR1 RECEPTOR COMPOUNDS” (priority 2008, published 2011)
